The source of these data is US9290743B2, “L-aspartate oxidase variant and a method for producing quinolinate or nicotinic acid using the same” (CJ CHEILJEDANG CORP., priority 2013, dated 2016).

The series deals with L-aspartate oxidase. Kind of series: Activity test of L-aspartate oxidase variants (H2O2, Amplex Red, absorbance at 560 nm) with NAD added. Format: biochemical, E. coli. As for the experimental part: After the recombinant vector pT7-nadB, pT7-nadB67, pT7-nadB67(V), pT7-nadB67(L), pT7-nadB67(I), or pT7-nadB67(H) was transformed into a tuner strain via CaCl2 method, the transformed strain was smeared on a LB-SP (yeast extract 10 g/L, NaCl 5 g/L, tryptone 10 g/L, and spectinomycin […]) plate medium, and cultured overnight at 37[…] to select spectinomycin-resistant colonies. One colony was selected from them and cultured in a LB-SP (yeast extract 10 g/L, NaCl 5 g/L, tryptone 10 g/L, spectinomycin […]) liquid medium, and then a isopropyl-1-thio-β-D-galactopyranoside (IPTG) derivative was added thereto when the growth optical density (OD) value reached to 0.4, and cultured at about 18[…] overnight. Cells including the overexpressed wild type L-aspartate oxidase and L-aspartate oxidase variants were recovered from the culture medium, followed by purification of the wild type L-aspartate oxidase and L-aspartate oxidase variants from the recovered cells by Ni-NTA spin kit (Quiagen, U.S.A). The recovered protein was 50% of a total protein, about 2% of the recovered protein was recovered as L-aspartate oxidase.
The L-aspartate oxidase converts aspartate as a substrate to iminoaspartate in the presence of an FAD as cofactor, and the imminoaspartate is converted b to oxaloacetate. Hydrogen peroxide (H2O2), that is generated through the above-described reaction, was used to identify the activity of the nadB. Absorbance at 560 nm of a reaction product of H2O2 with a product from the reaction was measured using an Amplex Red (Invitrogen, Korea) to determine the activity of the nadB. Here, NAD was added at different concentrations to create a condition for competitive inhibition to FAD so as to evaluate the resistance of L-aspartate oxidase against the feedback regulation by NAD.

B1: Wild type-nadB: His-tagged wild type E. coli L-aspartate oxidase (SEQ ID NO: 1) purified from pT7-nadB expression (protein)
chain: MNTLPEHSCDVLIIGSGAAGLSLALRLADQHQVIVLSKGPVTEGSTFYAQGGIAAVFDETDSIDSHVEDTLIAGAGICDRHAVEFVASNARSCVQWLIDQGVLFDTHIQPNGEESYHLTREGGHSHRRILHAADATGREVETTLVSKALNHPNIRVLERSNAVDLIVSDKIGLPGTRRVVGAWVWNRNKETVETCHAKAVVLATGGASKVYQYTTNPDISSGDGIAMAWRAGCRVANLEFNQFHPTALYHPQARNFLLTEALRGEGAYLKRPDGTRFMPDFDERGELAPRDIVARAIDHEMKRLGADCMFLDISHKPADFIRQHFPMIYEKLLGLGIDLTQEPVPIVPAAHYTCGGVMVDDHGRTDVEGLYAIGEVSYTGLHGANRMASNSLLECLVYGWSAAEDITRRMPYAHDISTLPPWDESRVENPDERVVIQHNWHELRLFMWDYVGIVRTTKRLERALRRITMLQQEIDEYYAHFRVSNNLLELRNLVQVAELIVRCAMMRKESRGLHFTLDYPELLTHSGPSILSPGNHYINR
modifications: His tag; amino acid sequence of nadB
On to B1, for which the Relative activity is 100% (NAD 0 mM); 95% (NAD 0.05 mM); 82% (NAD 0.3 mM); 65% (NAD 0.5 mM); 22% (NAD 1 mM); “less than 50%” (NAD 1 mM, listed as wild type L-aspartate oxidase).
